# Reference: patent US20230285509A1, “INTERFERON-BASED DISEASE TREATMENT METHOD” (XIAMEN AMOYTOP BIOTECH CO., LTD., priority 2019, published 2023)
# Several values for one entry are separate records, joined by “and”; a condition that tells them apart may be missing. Identical values can stand only once.
# Assays:
# [1] = system: transplanted liver cancer H22; assay: Transplanted liver cancer H22 in mice, survival, gemcitabine combination (Example 11); type: in vivo, BALB/c mice; details: gemcitabine 60 mg/kg ip once a week
# Protocol: After being divided into groups, the corresponding drugs or saline were administered. […] With respect to the intermittent administration, it was administered once every 48 hours, for three times continuously, before discontinuation of 144 hours. Gemcitabine was administered by intraperitoneal injection at a dose of 60 mg per kilogram of body weight each time, once a week. The normal saline control group was given an equal volume of normal saline. The PEG-mIFN-α4 intermittent administration combined with gemcitabine group was given gemcitabine during the first injection of PEG-mIFN-α4, and then administered with gemcitabine once a week thereafter. All groups were subjected to survival analysis to compare differences between groups.
# liver cancer H22 = assay: Liver cancer H22 in mice, tumor volume (Example 7); type: in vivo, BALB/c mice; details: 18 days after tumor inoculation; once a week; PEG-mIFN-α4 1.0 μg/w sc, gemcitabine 60 mg/kg/w ip
# Protocol: The average tumor volume for each individual group was calculated based on the formula V=1/2ab^2 (a and b represent length and width (mm) respectively) by measuring the tumor diameter, and the anti-tumor effect was observed dynamically.
# Statistical tests were all two-sided tests.
# melanoma B16 = assay: Melanoma B16 in mice, tumor volume (Example 10); type: in vivo, C57BL/6N mice; details: 14 days after tumor inoculation; once a week; PEG-mIFN-α4 1.0 μg/w sc, gemcitabine 60 mg/kg/w ip
# Text: (§1) The anticancer agent was gemcitabine (Jiangsu Hansoh Pharmaceutical Group Co., Ltd). […] Statistical tests were all two-sided tests.
# lung cancer LLC = assay: Lung cancer LLC in mice, tumor volume (Example 8); type: in vivo, C57BL/6N mice; details: 24 days after tumor inoculation; once a week; PEG-mIFN-α4 1.0 μg/w sc, gemcitabine 60 mg/kg/w ip
# Text: as §1
# colorectal cancer CT26 = assay: Colorectal cancer CT26 in mice, tumor volume (Example 9); type: in vivo, BALB/c mice; details: day 43; once a week; PEG-mIFN-α4 1.0 μg/w sc, gemcitabine 60 mg/kg/w ip
# Text: as §1
# [2] = system: mouse fibroblast/encephalomyocarditis virus (L929/EMCV); assay: Mouse fibroblast/encephalomyocarditis virus (L929/EMCV) cytopathic inhibition method; type: cell-based; details: commercial mIFN-α4 (R&D) as the standard
# Protocol: (§2) The bacterial endotoxin content of the deglycosylated mIFN-α4 stock solution was determined by the Limulus reagent method as lower than 60 EU/mg. specific activity was determined as 5.4×10^8 U/mg by using the commercial mIFN-α4 (R&D, catalog number 12115-1) as the standard, and by using the mouse fibroblast/encephalomyocarditis virus (L929/EMCV) cytopathic inhibition method.
# as §2, with “PEG-mIFN-α4” for “deglycosylated mIFN-α4”, “15” for “60”, “Specific” for “specific”, “6.1×10^6” for “5.4×10^8”
# [3] = system: transplanted liver cancer H22; assay: Continuous vs intermittent administration, transplanted liver cancer H22 in mice, survival (Example 6); type: in vivo, BALB/c mice
# [4] = design: species or system BALB/c mice; details: mouse, in vivo, sc
# Protocol: In this example, BALB/c mice were purchased from Beijing Vital River Laboratory Animal Technology Co., Ltd. The blood concentration of PEG-mIFN-α4 was detected by double-antibody sandwich ELISA.
# 6-8 weeks old, SPF grade BALB/c mice (N=60, with fifty-fifty of male and female mice) were injected with a single injection of 1 μg/mouse PEG-mIFN-α4 subcutaneously on the back of the neck. Plasma samples were collected before the injection (0 h) and after the injection at 15 h, 24 h, 36 h, 48 h, 72 h, 96 h, 120 h, 168 h, 216 h, 264 h, 312 h, to determine the blood concentration. Phoenix WinNonlin 6.4 software was used to calculate the pharmacokinetic parameters.
Molecule,"mortality rate ([1]; by day 41, PEG-mIFN-α4 1 microgram per mouse intermittent) [%]","Median survival period (Time after tumor inoculation, days) [1] [days]",Mean tumor volume (Standard deviation) (liver cancer H22),Mean tumor volume (Standard deviation) (melanoma B16),Mean tumor volume (Standard deviation) (lung cancer LLC),Mean tumor volume (Standard deviation) (colorectal cancer CT26),Specific activity [2],"Median survival period (Time after tumor inoculation, days) ([3]; continuous administration: 1 microgram per animal sc once every 48 hours, 21 times)","Survival rate during the observation period ([3]; intermittent administration: 1 microgram per animal sc once every 48 hours for 3 times, suspended 144 hours, 4 rounds, Day 40 after tumor inoculation)",Cl_F—obs [4] [mL/h],T1/2 (elimination half-life) [4] [h],Tmax (plasma concentration peak time) [4] [h],Vz_F—obs [4] [mL]
"Nc1ccn([C@@H]2O[C@H](CO)[C@@H](O)C2(F)F)c(=O)n1 [Gemcitabine, reference compound]",73.1,21.5,1619.3 (911.2) mm^3,2279.9 (807.6) mm^3,1466.6 (791.5) mm^3,1558.2 (2225.2) mm^3,–,–,–,–,–,–,–
"deglycosylated mIFN-α4: recombinant mouse interferon α4 expressed in Pichia pastoris, glycosyl groups removed with glycosidase (protein, UniProt P07351 25-186, looked up, deglycosylated, recombinant mouse interferon α4 expressed in Pichia pastoris, glycosyl groups removed with glycosidase) Interferon alpha-4: CDLPHTYNLGNKRALTVLEEMRRLPPLSCLKDRKDFGFPLEKVDNQQIQKAQAILVLRDLTQQILNLFTSKDLSATWNATLLDSFCNDLHQQLNDLKACVMQEPPLTQEDSLLAVRTYFHRITVYLRKKKHSLCAWEVIRAEVWRALSSSTNLLARLSEEKE",–,–,–,–,–,–,5.4×10^8 U/mg,–,–,–,–,–,–
"PEG-mIFN-α4: PEGylated recombinant mouse interferon α4: deglycosylated mIFN-α4 modified with 40 kD Y-type polyethylene glycol succinimide ester (YPEG-NHS) (protein, UniProt P07351 25-186, looked up, 40 kD Y-type PEG, deglycosylated) Interferon alpha-4: CDLPHTYNLGNKRALTVLEEMRRLPPLSCLKDRKDFGFPLEKVDNQQIQKAQAILVLRDLTQQILNLFTSKDLSATWNATLLDSFCNDLHQQLNDLKACVMQEPPLTQEDSLLAVRTYFHRITVYLRKKKHSLCAWEVIRAEVWRALSSSTNLLARLSEEKE",–,–,846.2 (592.0) mm^3,1639.7 (979.5) mm^3,4000.8 (2513.7) mm^3,5283.7 (5030.5) mm^3,6.1×10^6 U/mg,38 days and 38.0 days,93.3% and 93.3%.,0.07,28.3,24,2.91
